Experimental findings from paper PMC4782060, “Mechanism of intermediate filament recognition by plakin repeat domains revealed by envoplakin targeting of vimentin” (Nature Communications, 2016) are described below.

Substitutions are numbered along the chain they refer to. Names may count otherwise.

The labels stand for the following.
B1: envoplakin PRD R1895E (domain or fragment, human, UniProt Q92817 1822-2014, looked up)
chain: DDSFPIAGIYDTTTDNKCSIKTAVAKNMLDPITGQKLLEAQAATGGIVDLLSRERYSVHKAMERGLIENTSTQELLNAQKAFTGIEDPVTKKRLSVGEAVQKGWMPRESVLPHLQVQHLTGGLIDPKRTGRIPIQQALLSGMISEELAQLLQDESSYEKDLTDPISKERLSYKEAMGRCRKDPLSGLLLLPAA
notes: envoplakin, human, plakin repeat domain, residues Asp1822-Ala2014, mutant R1895E; 15N-labelled for NMR; source: E. coli BL21(DE3), purified (HisTrap, TEV cleavage, S75 size exclusion)
B2: envoplakin PRD R1990E (control mutation) (domain or fragment, human, UniProt Q92817 1822-2014, looked up)
chain: B1 chain with E74R, R169E
notes: envoplakin, human, plakin repeat domain, residues Asp1822-Ala2014, mutant R1990E; 15N-labelled for NMR; source: E. coli BL21(DE3), purified (HisTrap, TEV cleavage, S75 size exclusion)
B3: envoplakin PRD K1847E (control mutation) (domain or fragment, human, UniProt Q92817 1822-2014, looked up)
chain: B1 chain with K26E, E74R
notes: envoplakin, human, plakin repeat domain, residues Asp1822-Ala2014, mutant K1847E; 15N-labelled for NMR; source: E. coli BL21(DE3), purified (HisTrap, TEV cleavage, S75 size exclusion)
B4: envoplakin PRD K1994E (domain or fragment, human, UniProt Q92817 1822-2014, looked up)
chain: B1 chain with E74R, K173E
notes: envoplakin, human, plakin repeat domain, residues Asp1822-Ala2014, mutant K1994E; 15N-labelled for NMR; source: E. coli BL21(DE3), purified (HisTrap, TEV cleavage, S75 size exclusion)
B5: envoplakin PRD K1901E (domain or fragment, human, UniProt Q92817 1822-2014, looked up)
chain: B1 chain with E74R, K80E
notes: envoplakin, human, plakin repeat domain, residues Asp1822-Ala2014, mutant K1901E; 15N-labelled for NMR; source: E. coli BL21(DE3), purified (HisTrap, TEV cleavage, S75 size exclusion)
B6: envoplakin PRD R1952A (domain or fragment, human, UniProt Q92817 1822-2014, looked up)
chain: B1 chain with E74R, R131A
notes: envoplakin, human, plakin repeat domain, residues Asp1822-Ala2014, mutant R1952A; 15N-labelled for NMR; source: E. coli BL21(DE3), purified (HisTrap, TEV cleavage, S75 size exclusion)
B7: envoplakin PRD K1988E (control mutation) (domain or fragment, human, UniProt Q92817 1822-2014, looked up)
chain: B1 chain with E74R, K167E
notes: envoplakin, human, plakin repeat domain, residues Asp1822-Ala2014, mutant K1988E; 15N-labelled for NMR; source: E. coli BL21(DE3), purified (HisTrap, TEV cleavage, S75 size exclusion)
B8: envoplakin PRD R1914E (domain or fragment, human, UniProt Q92817 1822-2014, looked up)
chain: B1 chain with E74R, R93E
notes: envoplakin, human, plakin repeat domain, residues Asp1822-Ala2014, mutant R1914E; 15N-labelled for NMR; also called K1914E (as printed once in the text); source: E. coli BL21(DE3), purified (HisTrap, TEV cleavage, S75 size exclusion)
B9: vimentin^ROD D112K (domain or fragment)
chain: not shown
notes: vimentin, human, rod residues 99-249, mutant D112K
B10: vimentin^ROD construct, vimentin residues 99-249 (coils 1A and 1B of the central rod domain) (domain or fragment)
chain: not shown
notes: vimentin, human, rod residues 99-249, coils 1A and 1B; Vector pET21a+; His tag retained for SPR; also called WT; envoplakin^ROD (as printed once in the text)
B11: vimentin^ROD double mutant D112K/D119K (domain or fragment)
chain: not shown
notes: vimentin, human, rod residues 99-249, double mutant D112K/D119K
B12: vimentin^ROD D119K (domain or fragment)
chain: not shown
notes: vimentin, human, rod residues 99-249, mutant D119K

What all share (details): both partners purified
Assay [1] addresses T1, full-length human vimentin (residues Met1-Glu466) (human, UniProt P08670 1-466).
T1 construct: vimentin, human, residues Met1-Glu466; Vector pET21a+; also called vimentin^FL; full-length vimentin
Briefly: NMR titration; unlabelled full-length vimentin (10, 50, 100, 200 μM) added to 100 μM 15N-labelled wild-type or mutant envoplakin PRD; 1H,15N HSQC peak intensities; 20 mM Tris-Cl, pH 7, 1 mM DTT, no salt, 298 K.

Assay [2] has as its target T2, wild-type human envoplakin plakin repeat domain (PRD), residues Asp1822-Ala2014 (human, UniProt Q92817 1822-2014).
T2 construct: envoplakin, human, plakin repeat domain, residues Asp1822-Ala2014; vector pProEX-HTC; also called envoplakin PRD; WT; source: E. coli BL21(DE3), purified (HisTrap, TEV cleavage, S75 size exclusion)
T2 sequence (looked up): B1 chain with E74R
Briefly: SPR; His-tagged vimentin^ROD (wild type or mutant) immobilised on nickel-coated chips, Biacore 3000; envoplakin PRD 0-100 μM flowed over; 150 mM NaCl, 10 mM Hepes, 3 mM EDTA, 0.005% Surfactant P20, pH 7.4. In general terms: In SPR one partner is held on a chip, and binding of the other changes the refractive index at the surface.

Assay [3] addresses T3, envoplakin PRD K2002E (control mutation) (human, UniProt Q92817 1822-2014, K2002E).
T3 construct: envoplakin, human, plakin repeat domain, residues Asp1822-Ala2014, mutant K2002E; 15N-labelled for NMR; source: E. coli BL21(DE3), purified (HisTrap, TEV cleavage, S75 size exclusion)
T3 sequence (looked up): B1 chain with E74R, K181E
The assay is described as above.

The assay “envoplakin PRD K1901E” addresses B5. The assay is described as above.
For the assay “envoplakin PRD R1914E”, the target named is B8. The description is as above.
The target in assay [4] is B3. The assay is described as above.

T1 sequence (P08670 whole entry, the tested form may be a part): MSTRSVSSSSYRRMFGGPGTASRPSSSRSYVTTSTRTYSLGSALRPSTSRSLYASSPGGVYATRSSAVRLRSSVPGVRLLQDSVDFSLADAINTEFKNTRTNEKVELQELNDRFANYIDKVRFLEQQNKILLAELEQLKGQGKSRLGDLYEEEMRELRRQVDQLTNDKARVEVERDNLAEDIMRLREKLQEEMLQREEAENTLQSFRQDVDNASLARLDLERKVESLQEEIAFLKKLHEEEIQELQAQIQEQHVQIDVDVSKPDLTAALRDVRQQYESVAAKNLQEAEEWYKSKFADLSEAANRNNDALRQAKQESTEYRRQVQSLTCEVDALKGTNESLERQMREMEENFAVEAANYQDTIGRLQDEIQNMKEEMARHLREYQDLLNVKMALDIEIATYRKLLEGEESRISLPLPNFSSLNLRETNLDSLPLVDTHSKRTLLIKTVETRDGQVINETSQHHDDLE

As for B1, the binding result in assay [1] is reported as “binds”.

For B2, the binding result in assay [1] is “binds”.

Consider B3, for which, in assay [1], the binding result was “binds”.

B4: the binding result in assay [1] is “binds”.

For the molecule B5, in assay [1], the binding result is listed as “binds”.

For the molecule B6, the binding result in assay [1] is recorded as “binds”.

As to B7, the binding result in assay [1] is “binds”.

On to B8, for which, in assay [1], the binding result is listed as “binds”.

One may read the Kd as the constant that tells how readily two partners part at equilibrium. High values mean lower affinity, low ones higher affinity. With B9, the Kd in assay [2] was found to be 106 ± 45.6 µM.

Regarding B10, the Kd in assay [2] came out at 19.1 ± 1.3 µM; in assay [3], 14.5 ± 0.4 µM; in the assay with envoplakin PRD K1901E, 69.3 ± 10.6 µM; with envoplakin PRD R1914E it was 132 ± 34.7 µM; in assay [4], 26.5 ± 2 µM.

In assay [2], B11 returned a Kd of 1500 ± 139 µM.

As to B12, binding in assay [2] was put at a Kd of 48.4 ± 5.5 µM.
